Assay results reported in patent publication US7501552 (GENPHARM INTERNATIONAL, dated 2009).

Columns and labels:
Assay in all cases: flow cytometry on peripheral blood lymphocytes
[1] = molecular target: T1, cynomolgus monkey CD4 on lymphocytes (cynomolgus monkey, UniProt P79185 26-458)
T1 construct: whole, on cells; also called cynomolgus CD4 cells
Procedure: (§1) It is further desirable for some purposes that the animal be a non-human primate that expresses CD4 comprising a cross-reactive epitope with human CD4 such that it is recognized by the monoclonal antibody. […] Peripheral blood lymphocytes were isolated from whole blood of chimpanzee, rhesus, and cynomolgus monkeys. […] The stained cells were then analyzed by flow cytometry to determine if each of the human monoclonal antibodies bound to endogenous CD4 on the surface of lymphocytes from each of these three non-human primates.

[2] = molecular target: T2, rhesus monkey CD4 on lymphocytes (rhesus monkey, UniProt P16003 26-458)
T2 construct: whole, on cells; also called rhesus CD4 cells
Procedure: as §1

[3] = molecular target: T3, chimpanzee CD4 on lymphocytes (chimpanzee, UniProt P16004 26-458)
T3 construct: whole, on cells; also called chimpanzee CD4 cells
Procedure: as §1

Measured: binding result

T2 sequence (P16003 26-458): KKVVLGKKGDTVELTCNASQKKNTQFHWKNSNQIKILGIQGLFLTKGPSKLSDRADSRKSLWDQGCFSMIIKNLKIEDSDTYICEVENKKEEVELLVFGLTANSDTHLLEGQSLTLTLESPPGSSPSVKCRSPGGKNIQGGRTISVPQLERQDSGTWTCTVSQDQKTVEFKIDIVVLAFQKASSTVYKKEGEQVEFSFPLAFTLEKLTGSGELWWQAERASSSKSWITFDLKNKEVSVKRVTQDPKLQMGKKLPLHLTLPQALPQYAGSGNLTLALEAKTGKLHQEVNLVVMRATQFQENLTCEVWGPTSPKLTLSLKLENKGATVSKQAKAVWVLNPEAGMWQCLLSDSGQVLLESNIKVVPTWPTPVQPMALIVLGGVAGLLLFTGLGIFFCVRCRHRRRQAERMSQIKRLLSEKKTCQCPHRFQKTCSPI
T3 sequence (P16004 26-458): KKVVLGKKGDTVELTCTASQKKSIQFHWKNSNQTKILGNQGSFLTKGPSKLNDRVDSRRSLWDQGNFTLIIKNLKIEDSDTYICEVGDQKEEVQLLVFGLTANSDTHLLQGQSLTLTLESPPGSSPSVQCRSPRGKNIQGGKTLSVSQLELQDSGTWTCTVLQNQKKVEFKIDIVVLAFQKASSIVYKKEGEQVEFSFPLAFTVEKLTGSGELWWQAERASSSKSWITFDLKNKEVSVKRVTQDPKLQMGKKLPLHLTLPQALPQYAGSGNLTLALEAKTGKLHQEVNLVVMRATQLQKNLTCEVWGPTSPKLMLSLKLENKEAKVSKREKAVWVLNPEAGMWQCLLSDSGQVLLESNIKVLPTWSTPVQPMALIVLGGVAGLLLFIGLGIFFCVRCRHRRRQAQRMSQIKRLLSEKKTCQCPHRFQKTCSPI
T1 sequence (P79185 26-458): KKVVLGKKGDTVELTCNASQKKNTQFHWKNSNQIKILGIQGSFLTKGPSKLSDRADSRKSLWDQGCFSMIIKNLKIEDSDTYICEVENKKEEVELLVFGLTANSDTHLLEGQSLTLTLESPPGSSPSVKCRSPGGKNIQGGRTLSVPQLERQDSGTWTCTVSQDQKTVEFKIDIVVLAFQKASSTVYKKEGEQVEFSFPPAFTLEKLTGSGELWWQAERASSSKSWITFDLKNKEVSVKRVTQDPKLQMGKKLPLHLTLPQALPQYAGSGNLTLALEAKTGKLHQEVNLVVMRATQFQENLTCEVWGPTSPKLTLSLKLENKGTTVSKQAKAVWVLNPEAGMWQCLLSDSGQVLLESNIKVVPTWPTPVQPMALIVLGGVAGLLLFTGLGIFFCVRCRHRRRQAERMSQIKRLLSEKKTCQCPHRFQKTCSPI

B1: 4D1 (antibody, V domains shown)
VH: EVQLVQSGAEVKKPGESLKISCKGSGYSFTGYWIGWVRQMPGKGLEWMGIIYPGDSDTTYSPSFQGQVTISADKSISTAYLQWSSLKASDTAMYYCARDQLGLFDYWGQGTLVTVSS
VL: DIQMTQSPSSLSASVGDRVTITCRASQGISSWLAWYQQKPEKAPKSLIYSASSLQSGVPSRFSGSGSGTDFTLTISSLQPEDFATYYCQQYDSYPYTFGQGTKLEIK
notes: human IgG1 kappa from hybridoma; h.c; VH5-51, DHQ52, JH4; VkL15, Jk2; also called 4D1.4
binds: [1] | [2] | [3]
